Test results as given in US6984719B1, “Peptide antagonists of prostaglandin F2α receptor” (Hospital Sainte-Justine, priority 1998, dated 2006).
Square brackets hold non-standard residues; d marks the D form. Ends that are not written are not given here.

Tests used:
[1] = biological target: T1, FP receptor (Sus scrofa, UniProt C6GAG8); assay: Porcine eyecup model of ex vivo vasomotricity assay, PGF2α-induced constriction of retinal microvessels; parameters: species or system pig; settings: for % Vasomotor response (of max constriction): compared to maximal constriction without peptide; for change of inhibitory activity of the peptide variant relative to the parent peptide: peptides at 100 μM, porcine retinal vasomotricity assay, structure-activity summary
T1 construct: from tissue; host or cells: eyecup / retinal microvessels of newborn pigs pretreated with ibuprofen
T1 sequence (C6GAG8 1-362): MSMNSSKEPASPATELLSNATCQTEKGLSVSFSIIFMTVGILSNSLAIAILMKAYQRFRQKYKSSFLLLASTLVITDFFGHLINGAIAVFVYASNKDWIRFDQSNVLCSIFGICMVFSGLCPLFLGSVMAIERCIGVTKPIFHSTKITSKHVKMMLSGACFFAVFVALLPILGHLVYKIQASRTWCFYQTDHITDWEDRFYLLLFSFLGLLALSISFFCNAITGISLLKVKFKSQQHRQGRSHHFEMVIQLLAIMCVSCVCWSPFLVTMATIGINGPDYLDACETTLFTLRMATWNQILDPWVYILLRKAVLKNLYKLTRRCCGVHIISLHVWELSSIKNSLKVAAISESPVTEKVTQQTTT
From the text: In order to see if the peptides could inhibit FP function using an ex vivo model, we chose porcine eyecup model, an ex vivo assay of vascular constriction in porcine retinas which we previously described and validated (Li et al., 1996 J. Pharmacol. Expt. Therapeut. 278: 370–377; Li et al., 1997 Am. J. Physiol. 273: R1283–90; Abran et al., 1997 Am. J. Physiol. 272: R995–1001). Since FP receptor densities in newborn vasculature are minimal due to down regulation by high levels of circulating prostaglandins in the perinatal period, the newborn pigs were treated with a prostaglandin synthetase blocker, ibuprofen (30 mg/Kg of bodyweight/8 h for 24 h) to increase the density of the receptors as well as their vasomotor effects. By inhibiting circulating prostaglandins, we were able to show potent inhibition of FP receptor-mediated second messenger synthesis as well as FP-mediated vascular constriction in this eyecup model.
To prepare eyecups, a circular incision was made 3–4 mm posterior to ora serrata to remove the […] segment and vitreous body with minimal handling of the retina. The remaining eyecup was fixed with pins to a wax base in a 20 ml tissue bath containing 20 ml of Kreb's buffer (pH 7.35–7.45), protease inhibitors, leupetin and aprotinin (10 μg/ml each), and equilibrated with 21% oxygen and 5% carbon dioxide at 37° C. The preparations were allowed to stabilize for 30 min. Peptides at 100 μM were added and incubation was continued for 30 min before the addition of PGF2α.
Cumulative concentration-responses of PGF2α, and TxA2 mimetic, U46619, (10^−10 to 10^−5 M) curves were constructed separately. To assess the reversibility of the antagonists, the eyecups were thoroughly washed (which would wash away the peptide) with incubation medium and concentration response curves for PGF2α were determined. The outer vessel diameter was recorded with a video camera mounted on a dissecting microscope (Zeiss M 400™) and the responses were quantified by a digital image analyzer (Sigma Scan Software, Jandel Scientific, Corte Madera, Calif.). Vascular diameter was recorded before and 10 min following the topical application of the agent.
^1Percent vasomotor response in the presence of 100 μM peptide is calculated as percent change in average vascular diameter produced by 10^−7 M PGF2α to the eyecup in the presence of the peptide compared to maximal constriction observed in the absence of the peptide.
^2Percent inhibition produced by each peptide is calculated as (100-percent vasomotor response).
Small letters indicate L-amino acids and capital letters indicate D-amino acids. I=isoleucine; L=leucine; G=glycine; H=histidine; R=Arginine; D=Aspartic acid; Y=Tyrosine; K=Lysine; A=Alanine; W=Tryptophan; E=Glutamic acid; F=Phenyl alanine; Q=Glutamine; N=Aspargine; P=Proline; S=Serine; X=Cyclohexyl alanine. Peptides were dissolved in DMSO freshly just before the experiment as 10 mM stocks and added to the eye cups 30 min before the addition of 10^−7 M PGF2α.
These peptides incorporate L- to D-amino acid changes, deletions, subtle variations in aromaticity, hydrogen bond donor status as opposed to ionic interactions and hydrophobicity.

[2] = biological target: T2, human FP receptor (Homo sapiens, UniProt P43088); assay: PGF2α-induced phosphoinositide hydrolysis (inositol phosphate synthesis) in HEK293 cells expressing FP receptor; format: cell-based; settings: HEK293 cells stably expressing human FP receptor; 1 μM PGF2α; read-out: half maximal inhibitory concentration, inositol phosphate synthesis
T2 construct: expressed in transfected cells
T2 sequence (P43088 whole entry): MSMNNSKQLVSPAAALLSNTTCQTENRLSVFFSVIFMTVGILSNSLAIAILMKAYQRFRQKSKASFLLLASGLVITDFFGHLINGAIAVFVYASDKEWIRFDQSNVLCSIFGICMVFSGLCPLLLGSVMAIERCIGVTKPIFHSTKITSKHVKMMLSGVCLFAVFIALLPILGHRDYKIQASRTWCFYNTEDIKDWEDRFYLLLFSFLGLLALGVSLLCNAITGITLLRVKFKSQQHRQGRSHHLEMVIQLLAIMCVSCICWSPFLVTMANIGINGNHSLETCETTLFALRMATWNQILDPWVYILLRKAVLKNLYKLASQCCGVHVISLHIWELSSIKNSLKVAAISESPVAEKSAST
Protocol: Both PCP-8 and -10 were tested in HEK293 cells expressing the human FP receptor. For this purpose, HEK 293 cells stably expressing human FP receptor were plated in 12-well plates in DMEM medium containing 10% fetal bovine serum, penicillin (10 U/ml) and streptomycin (10 μg/ml) and cultured in a humidified atmosphere containing 5% CO2 at 37° C. After the wells were 80% confluent, the cells were labeled with 2 μCi/ml of [^3H]-myo inositol overnight. Next day, the cells were washed once with PBS, and incubated in 0.5 ml of Kreb's buffer containing 10 mM LiCl and indicated concentrations of PCP peptides for 30 min. PGF2α at 1 μM was added to the cells and the incubation was carried out for an additional 30 min. The cells were solubilized with 0.1 N NaOH for 10 min and neutralized with 0.1 N formic acid. The lysates were collected and 1 ml each of methanol and chloroform were sequentially added and vortexed briefly. After centrifugation to separate the phases, inositol phosphates were separated by ion exchange chromatography as described below (Berridge, M. J. et al., 1983, Biochem. J. 212:473–482).
Briefly, the medium was discarded and the IP3 synthesis was stopped by adding 0.6 ml ice-cold methanol. The cells were scraped and collected into polypropylene tubes. Distilled water (0.5 ml) and chloroform (0.6 ml) were added and vigorously vortexed for 2 min. The phases were separated by centrifugation at 6000×g for 10 min. The aqueous phase was applied to AG-1X-8™ (Formate form) anion exchange columns (1 ml bed volume) and free inositol was eluted with 10 ml of water, followed by 60 mM ammonium formate in 0.1 M formic acid. Then, the inositol phosphates were eluted with 5 ml of 1.2 M ammonium formate in 0.1 M formic acid. After adding 3 volumes of scintillation cocktail (Optiphase-HiSafe III), the eluates were counted by scintillation spectrophotometry.
Data are expressed as fold stimulation of inositol phosphate synthesis by 1 μM PGF2α compared to the unstimulated controls. […] The half maximal inhibitory concentrations for both PCP-8 and -10 were slightly less than 100 μM.

[3] = 100 μM peptide, 10^−7 M PGF2α, calculated as 100-percent vasomotor response

| Substance | % inhibition of maximal response [1, 3] [%] | % Vasomotor response (of max constriction) ([1]; 100 μM peptide, 10^−7 M PGF2α) [%] | change of inhibitory activity of the peptide variant relative to the parent peptide [1] | IC50 [2] [µM] | Emax ([1]; 100 μM peptide, 10^−7 M PGF2α, calculated as 100-percent vasomotor response, read-out: % inhibition of maximal response) [%] |
| --- | --- | --- | --- | --- | --- |
| ILAHRDYK (Peptide antagonist derived from the sequence of the Prostaglandin F2-alpha receptor.) [PCP-13.7] | 76.2 | 23.8 | does not change the activity | – | – |
| ILGFRDYK (Peptide antagonist derived from the sequence of the Prostaglandin F2-alpha receptor.) [PCP-13.11] | 87.0 | 13.0 | did not result in significant reduction of peptide inhibitory potency | – | – |
| ILGHQDYK (Peptide antagonist derived from the sequence of the Prostaglandin F2-alpha receptor.) [PCP-13.18] | 70.0 | 30.0 | affected the activity of PCP-13 moderately | – | – |
| ILGHRDY-amide ([dI][dL]G[dH][dR][dD][dY]-NH2) [PCP-13.20] | 50.4 | 49.6 | moderate gain of activity | – | – |
| ILGHRDYK (Peptide antagonist derived from the sequence of the Prostaglandin F2-alpha receptor.) [PCP-13] | 80.0 | 20.0 | increased the inhibitory potency dramatically | – | – |
| ILGHRDYK-amide ([dI][dL]G[dH][dR][dD][dY][dK]-NH2) [PCP-13.21] | 53.8 | 46.2 | moderate gain of activity | – | – |
| ILGHRNYK (Peptide antagonist derived from the sequence of the Prostaglandin F2-alpha receptor.) [PCP-13.14] | 59.7 | 40.3 | moderate loss of activity | – | – |
| ILGWRDYK (Peptide antagonist derived from the sequence of the Prostaglandin F2-alpha receptor.) [PCP-13.22] | 83.4 | 16.6 | did not result in significant reduction of peptide inhibitory potency | – | – |
| ILaHRDYK ([dI][dL]A[dH][dR][dD][dY][dK]; not fully specified (residue 3); printed as ILaHRDYK) [PCP-13.8] | 53.2 | 46.8 | loss of activity | – | – |
| PCP-11: PCP-8 with the N-terminal hydrophobic dipeptide sequence removed (GHRDYK) | – | – | significant reduction in the inhibitory action | – | – |
| PCP-12: PCP-10 with the N-terminal hydrophobic dipeptide sequence removed (DRFYLL) | – | – | significant reduction in the inhibitory action | – | – |
| PCP-13.9: PCP-13 with terminal lysine substituted with W ([dI][dL]G[dH][dR][dD][dY][dW]) | – | – | complete loss of activity | – | – |
| PCP-13.10: PCP-13 with aromatic residue Y substituted with E ([dI][dL]G[dH][dR][dD][dE][dK]) | – | – | completely abolished the inhibitory potency | – | – |
| PCP-13.12: PCP-13 with D changed to E ([dI][dL]G[dH][dR][dE][dY][dK]) | – | – | loss of half of the inhibitory activity | – | – |
| PCP-13.15: PCP-13 with deletion of terminal lysine ([dI][dL]G[dH][dR][dD][dY]) | – | – | complete loss of activity | – | – |
| PCP-13.16: PCP-13 with glycine changed to proline ([dI][dL][dP][dH][dR][dD][dY][dK]) | – | – | loss of activity | – | – |
| PCP-13.17: PCP-13 with the glycine residue deleted ([dI][dL][dH][dR][dD][dY][dK]) | – | – | loss of activity | – | – |
| PCP-13.19: PCP-13 with a serine substitution of D ([dI][dL]G[dH][dR][dS][dY][dK]) | – | – | drastic loss of activity | – | – |
| PCP-13.23: PCP-13 with H changed to Y ([dI][dL]G[dY][dR][dD][dY][dK]) | – | – | significant reduction of peptide inhibitory potency | – | – |
| SNVLCSIF (Peptide antagonist derived from the sequence of the Prostaglandin F2-alpha receptor.) [PCP-15] | 88.1 | 11.9 | – | – | – |
| WEDRFYLL [PCP-10, wedrfyll] | – | 20.0 | – | < 100 | 80 |
| YQDRFYLL (Peptide antagonist derived from the sequence of the Prostaglandin F2-alpha receptor.) [PCP-14] | 64.0 | 36.0 | – | – | – |
